Data: patent US20240261333A1 (published 2024)

Legend:
Assay in all cases: co-IP, anti-FLAG, lysate of cells with N-FLAG B3GNT2; mass spectrometry
[1] = biological target: T1, LMNA (human, UniProt P02545 1-646, limits assumed)
T1 construct: also called NP_733821.1
T1 sequence (looked up): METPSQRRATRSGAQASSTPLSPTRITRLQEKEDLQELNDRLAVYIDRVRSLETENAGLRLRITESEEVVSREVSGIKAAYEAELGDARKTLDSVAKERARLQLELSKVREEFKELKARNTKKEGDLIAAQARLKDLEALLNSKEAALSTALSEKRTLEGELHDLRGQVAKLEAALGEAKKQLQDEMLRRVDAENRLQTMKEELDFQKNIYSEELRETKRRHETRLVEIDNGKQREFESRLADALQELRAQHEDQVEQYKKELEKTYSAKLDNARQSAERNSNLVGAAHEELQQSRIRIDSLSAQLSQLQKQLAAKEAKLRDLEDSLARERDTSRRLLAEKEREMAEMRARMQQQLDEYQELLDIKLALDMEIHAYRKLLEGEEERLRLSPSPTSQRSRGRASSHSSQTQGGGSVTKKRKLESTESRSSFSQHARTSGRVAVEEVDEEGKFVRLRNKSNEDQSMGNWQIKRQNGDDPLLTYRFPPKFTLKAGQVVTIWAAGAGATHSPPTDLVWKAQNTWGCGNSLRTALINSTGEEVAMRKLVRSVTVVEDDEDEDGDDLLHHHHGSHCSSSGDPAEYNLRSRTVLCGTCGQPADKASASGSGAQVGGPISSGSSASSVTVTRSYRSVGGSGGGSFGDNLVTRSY
Experimental: (§1) Cells were plated in 10-cm cell culture dishes and grown to 60-80% confluency. For each condition, two biological replicates were harvested for co-IP. Cells were washed with PBS and 4 mL of lysis buffer (20 mM HEPES, 1% Triton X-100, 150 mM NaCl, 1 mM EDTA, and 10% glycerol) containing protease inhibitor cocktail was added. Cells were scraped and lysate was incubated at 4° C. under rotary agitation for 1 h. Lysate was centrifuged at 14,000×g for 10 min at 4° C. Supernatant was transferred to a new tube and an aliquot was taken as the input. […] For Western blots, 10 μg/mL Chicken Anti-FLAG (Aves labs ET-DY100) and IgY control (R&D Systems AB-101-C) antibodies were biotinylated (Thermo Fisher Scientific 90407) and added to the respective conditions. Lysates with antibodies were incubated at 4° C. under rotary agitation overnight. For each mL of lysate, 50 μL of Pierce Protein A/G Magnetic Beads (Mass spectrometry; Thermo Fisher Scientific 88803) or Pierce Streptavidin Magnetic Beads (Western blot; Thermo Fisher Scientific 88817) was washed twice with lysis buffer. Lysates with antibodies were added to the beads and incubated at 4° C. under rotary agitation for 4 h. Beads were washed with lysis buffer 3 times and resuspended in lysis buffer for storage.
(§2) Magnetic beads were resuspended in 100 mM Tris pH 7.8, reduced, alkylated and digested with trypsin at 37° ° C. overnight. This solution was subjected to solid phase extraction to concentrate the peptides and remove unwanted reagents followed by injection onto a Shimadzu HPLC with fraction collector. Eight fractions were collected and after concentration were injected on a Waters NanoAcquity HPLC equipped with a self-packed Aeris 3 μm C18 analytical column 0.075 mm by 20 cm, (Phenomenex). Peptides were eluted using standard reverse-phase gradients. The effluent from the column was analyzed using a Thermo Orbitrap Elite mass spectrometer (nanospray configuration) operated in a data dependent manner for 54 minutes. The resulting fragmentation spectra were correlated against the known database using Proteome Discover 1.4 (Thermo Fisher Scientific).

[2] = biological target: T2, LSM12 (human, UniProt Q3MHD2 2-195)
T2 construct: also called NP_689557.1
Experimental: as §1, §2

[3] = biological target: T3, DNAJC3 (human, UniProt Q13217 32-504)
T3 construct: also called NP_006251.1 (+4)
T3 sequence (looked up): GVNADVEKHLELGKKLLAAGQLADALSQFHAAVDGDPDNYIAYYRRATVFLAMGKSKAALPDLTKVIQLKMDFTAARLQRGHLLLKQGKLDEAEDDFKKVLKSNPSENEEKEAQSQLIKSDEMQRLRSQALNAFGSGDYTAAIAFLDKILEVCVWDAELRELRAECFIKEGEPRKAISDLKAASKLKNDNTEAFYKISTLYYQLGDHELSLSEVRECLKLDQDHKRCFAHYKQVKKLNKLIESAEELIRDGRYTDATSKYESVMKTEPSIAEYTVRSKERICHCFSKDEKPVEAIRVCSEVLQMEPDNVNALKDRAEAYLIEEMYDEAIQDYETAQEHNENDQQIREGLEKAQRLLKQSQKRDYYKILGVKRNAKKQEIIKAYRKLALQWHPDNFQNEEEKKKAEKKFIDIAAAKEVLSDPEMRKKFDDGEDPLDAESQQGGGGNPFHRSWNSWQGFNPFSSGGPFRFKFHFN
Experimental: as §1, §2

[4] = biological target: RPS28 (human, UniProt P62857 1-69)
Experimental: as §1, §2

[5] = biological target: T4, MYH11 (human, UniProt P35749-3 1-1945, limits assumed)
T4 construct: also called NP_001035202.1 (+4)
Experimental: as §1, §2

[6] = biological target: ARPC4 (human, UniProt P59998 2-187)
Experimental: as §1, §2

[7] = biological target: FAU (human, UniProt P62861 75-133)
Experimental: as §1, §2

[8] = biological target: RPL4 (human, UniProt P36578 2-427)
Experimental: as §1, §2

T4 sequence (P35749 other isoform, or with tags, fused parts or gaps limits assumed): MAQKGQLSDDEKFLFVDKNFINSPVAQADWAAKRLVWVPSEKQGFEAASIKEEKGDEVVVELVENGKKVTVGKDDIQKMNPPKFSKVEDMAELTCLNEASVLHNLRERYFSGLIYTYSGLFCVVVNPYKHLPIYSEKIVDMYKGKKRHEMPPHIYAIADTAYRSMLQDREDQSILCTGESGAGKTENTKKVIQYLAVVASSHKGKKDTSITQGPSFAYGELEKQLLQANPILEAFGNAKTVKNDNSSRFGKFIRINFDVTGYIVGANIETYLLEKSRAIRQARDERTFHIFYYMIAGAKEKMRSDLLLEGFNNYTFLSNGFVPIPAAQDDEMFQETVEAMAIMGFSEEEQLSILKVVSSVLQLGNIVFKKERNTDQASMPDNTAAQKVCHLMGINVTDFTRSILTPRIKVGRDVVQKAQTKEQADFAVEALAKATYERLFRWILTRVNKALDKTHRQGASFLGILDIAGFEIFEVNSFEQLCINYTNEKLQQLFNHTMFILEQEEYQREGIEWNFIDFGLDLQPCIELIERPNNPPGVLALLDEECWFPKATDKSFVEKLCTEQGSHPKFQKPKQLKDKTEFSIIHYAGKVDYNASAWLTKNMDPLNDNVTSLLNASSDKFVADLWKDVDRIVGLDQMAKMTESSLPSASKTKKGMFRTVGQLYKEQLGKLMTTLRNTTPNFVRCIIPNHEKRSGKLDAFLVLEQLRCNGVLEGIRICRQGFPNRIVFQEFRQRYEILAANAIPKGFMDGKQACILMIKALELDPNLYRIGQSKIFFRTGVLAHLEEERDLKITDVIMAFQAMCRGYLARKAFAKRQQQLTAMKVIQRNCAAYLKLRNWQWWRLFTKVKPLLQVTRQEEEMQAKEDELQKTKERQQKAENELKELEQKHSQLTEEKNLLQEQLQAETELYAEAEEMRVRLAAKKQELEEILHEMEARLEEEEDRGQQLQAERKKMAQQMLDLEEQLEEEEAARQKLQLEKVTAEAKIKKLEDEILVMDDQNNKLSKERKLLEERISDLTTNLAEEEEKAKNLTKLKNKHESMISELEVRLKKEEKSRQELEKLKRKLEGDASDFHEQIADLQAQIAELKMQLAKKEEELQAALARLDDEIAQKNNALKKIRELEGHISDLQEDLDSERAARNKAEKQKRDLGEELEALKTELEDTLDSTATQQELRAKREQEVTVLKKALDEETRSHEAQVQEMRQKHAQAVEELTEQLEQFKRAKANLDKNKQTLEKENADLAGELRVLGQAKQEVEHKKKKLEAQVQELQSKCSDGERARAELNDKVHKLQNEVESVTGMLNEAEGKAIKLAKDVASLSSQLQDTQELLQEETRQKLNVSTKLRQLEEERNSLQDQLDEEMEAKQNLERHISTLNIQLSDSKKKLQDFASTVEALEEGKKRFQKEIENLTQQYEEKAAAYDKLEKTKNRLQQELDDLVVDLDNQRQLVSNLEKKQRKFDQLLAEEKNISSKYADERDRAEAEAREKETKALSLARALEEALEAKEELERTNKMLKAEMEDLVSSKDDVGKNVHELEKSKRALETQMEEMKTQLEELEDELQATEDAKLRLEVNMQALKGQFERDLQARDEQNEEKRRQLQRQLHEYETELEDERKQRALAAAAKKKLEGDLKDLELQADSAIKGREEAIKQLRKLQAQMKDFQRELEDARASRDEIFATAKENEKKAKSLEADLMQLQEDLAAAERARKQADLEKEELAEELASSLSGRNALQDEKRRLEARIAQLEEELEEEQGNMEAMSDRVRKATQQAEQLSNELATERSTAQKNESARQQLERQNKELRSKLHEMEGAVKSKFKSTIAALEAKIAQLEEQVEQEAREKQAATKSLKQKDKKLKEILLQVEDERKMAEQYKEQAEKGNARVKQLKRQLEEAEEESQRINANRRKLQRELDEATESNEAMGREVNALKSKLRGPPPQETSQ
T2 sequence (Q3MHD2 2-195 limits assumed): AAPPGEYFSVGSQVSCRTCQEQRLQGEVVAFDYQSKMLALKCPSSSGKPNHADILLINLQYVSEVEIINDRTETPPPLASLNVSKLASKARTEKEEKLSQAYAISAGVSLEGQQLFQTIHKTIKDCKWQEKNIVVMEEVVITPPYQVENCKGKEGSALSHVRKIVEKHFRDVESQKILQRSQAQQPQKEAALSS

B1: N-terminal FLAG tagged B3GNT2 (enzyme, human, UniProt Q9NY97 1-397, looked up)
chain: MSVGRRRIKLLGILMMANVFIYFIMEVSKSSSQEKNGKGEVIIPKEKFWKISTPPEAYWNREQEKLNRQYNPILSMLTNQTGEAGRLSNISHLNYCEPDLRVTSVVTGFNNLPDRFKDFLLYLRCRNYSLLIDQPDKCAKKPFLLLAIKSLTPHFARRQAIRESWGQESNAGNQTVVRVFLLGQTPPEDNHPDLSDMLKFESEKHQDILMWNYRDTFFNLSLKEVLFLRWVSTSCPDTEFVFKGDDDVFVNTHHILNYLNSLSKTKAKDLFIGDVIHNAGPHRDKKLKYYIPEVVYSGLYPPYAGGGGFLYSGHLALRLYHITDQVHLYPIDDVYTGMCLQKLGLVPEKHKGFRTFDIEEKNKNNICSYVDLMLVHSRKPQEMIDIWSQLQSAHLKC
notes: Overexpressed in cells and pulled down from the lysate with mouse anti-FLAG antibody; also called N-FLAG B3GNT2; N-term FLAG; not shown: N-terminal FLAG tag
In the case of B1, the “co-IP mass spectrometry count” value [1] is reported as 11, the “co-IP mass spectrometry count” value [2] is reported as 4 and the “co-IP mass spectrometry count” value [3] is reported as 0. For the same binder, the “co-IP mass spectrometry count” value [4] was 0, the “co-IP mass spectrometry count” value [5] was 2 and the “co-IP mass spectrometry count” value [6] was 0. The “co-IP mass spectrometry count” value [7] was 5 and the “co-IP mass spectrometry count” value [8] was 15.
